US20220073611A1

Molecular target: NR1 ATD fusion protein on 293T-ATD cells (human)
Experiment: flow cytometry on 293T-ATD cells, co-stained with commercial anti-NR1 mAb

NR1 ATD fusion protein on 293T-ATD cells (human), sequence (chain, as listed by the source limits assumed): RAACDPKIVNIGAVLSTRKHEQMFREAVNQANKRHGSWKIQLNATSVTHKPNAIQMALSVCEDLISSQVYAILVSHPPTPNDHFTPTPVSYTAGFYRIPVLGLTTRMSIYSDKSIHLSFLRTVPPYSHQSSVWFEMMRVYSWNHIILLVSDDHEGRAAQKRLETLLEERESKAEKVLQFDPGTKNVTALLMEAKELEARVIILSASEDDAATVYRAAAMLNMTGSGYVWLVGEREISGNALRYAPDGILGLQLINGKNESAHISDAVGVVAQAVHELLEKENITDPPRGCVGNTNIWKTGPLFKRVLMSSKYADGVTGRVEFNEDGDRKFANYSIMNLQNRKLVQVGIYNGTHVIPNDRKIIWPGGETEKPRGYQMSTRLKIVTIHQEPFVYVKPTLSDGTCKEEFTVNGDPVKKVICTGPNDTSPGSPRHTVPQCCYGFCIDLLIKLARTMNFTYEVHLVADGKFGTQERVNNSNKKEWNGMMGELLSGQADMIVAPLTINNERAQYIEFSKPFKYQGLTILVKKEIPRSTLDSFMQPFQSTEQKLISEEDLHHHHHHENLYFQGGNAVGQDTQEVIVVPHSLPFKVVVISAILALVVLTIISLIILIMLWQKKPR

6A isotype control human mAb (antibody) gave a Percent GluN1 positive 293T-ATD cells bound of 18% and a double positive cells of 12.4%.
